Laboratory results from US20060188503A1.

What was measured:
[1] = biological target: KDR receptor on human umbilical vein endothelial cells (HUVEC) (human) (UniProt P35968); assay: cell-based or functional assay
[2] = biological target: KDR receptor with a gD tag at the N-terminus, on CHO cells (UniProt P35968); assay: cell-based or functional assay

Sequence of KDR receptor on human umbilical vein endothelial cells (HUVEC) (human) (P35968 20-1356): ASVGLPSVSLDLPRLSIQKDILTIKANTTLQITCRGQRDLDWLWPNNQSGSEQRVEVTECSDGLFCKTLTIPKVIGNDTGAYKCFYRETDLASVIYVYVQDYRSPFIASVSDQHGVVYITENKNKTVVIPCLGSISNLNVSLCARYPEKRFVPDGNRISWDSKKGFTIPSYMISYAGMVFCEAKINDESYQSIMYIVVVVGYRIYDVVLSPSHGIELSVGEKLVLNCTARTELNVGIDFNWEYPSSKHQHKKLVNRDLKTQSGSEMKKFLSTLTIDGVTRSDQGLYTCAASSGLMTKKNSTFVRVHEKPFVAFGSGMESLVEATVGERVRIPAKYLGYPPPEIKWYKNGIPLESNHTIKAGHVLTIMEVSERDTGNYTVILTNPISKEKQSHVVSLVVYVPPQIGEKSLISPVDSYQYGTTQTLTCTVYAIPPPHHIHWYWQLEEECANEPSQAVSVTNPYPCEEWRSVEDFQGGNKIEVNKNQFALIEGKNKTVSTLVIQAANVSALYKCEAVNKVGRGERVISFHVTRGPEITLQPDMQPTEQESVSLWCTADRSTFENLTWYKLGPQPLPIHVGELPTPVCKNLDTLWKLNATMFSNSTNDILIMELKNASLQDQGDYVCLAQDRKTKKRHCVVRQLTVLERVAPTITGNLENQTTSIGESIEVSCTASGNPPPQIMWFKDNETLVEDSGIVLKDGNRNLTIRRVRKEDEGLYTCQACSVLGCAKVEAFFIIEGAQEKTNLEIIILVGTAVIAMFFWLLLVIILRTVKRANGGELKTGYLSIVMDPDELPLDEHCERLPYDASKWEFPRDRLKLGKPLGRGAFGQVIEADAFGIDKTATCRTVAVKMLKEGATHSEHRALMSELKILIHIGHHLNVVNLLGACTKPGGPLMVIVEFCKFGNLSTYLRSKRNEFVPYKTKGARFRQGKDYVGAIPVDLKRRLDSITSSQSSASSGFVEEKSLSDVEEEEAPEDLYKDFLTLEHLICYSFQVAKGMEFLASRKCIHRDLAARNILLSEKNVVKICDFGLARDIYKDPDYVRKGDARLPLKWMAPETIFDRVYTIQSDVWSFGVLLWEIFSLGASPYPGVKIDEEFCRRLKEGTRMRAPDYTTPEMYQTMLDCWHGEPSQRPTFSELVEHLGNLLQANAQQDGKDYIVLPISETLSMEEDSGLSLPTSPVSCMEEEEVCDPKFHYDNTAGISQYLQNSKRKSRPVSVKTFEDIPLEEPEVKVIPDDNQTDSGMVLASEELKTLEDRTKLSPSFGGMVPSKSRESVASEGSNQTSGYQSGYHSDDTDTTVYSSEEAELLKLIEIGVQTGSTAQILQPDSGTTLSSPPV

Endothelial Cell Proliferation Activity (HUVEC, 3H-thymidine), concentration [1]: 0.5 nM | Phosphorylation-Inducing Activity (KIRA), concentration at midpoint absorbance [2]: 2 nM
Substance: Native VEGF (8-109) (from UniProt P15692 214-315) (ligand)
